Measurements taken from the supplement of paper PMC9112550, “Optimization of the antimicrobial peptide Bac7 by deep mutational scanning” (BMC Biology, 2022).

Tested on: Escherichia coli TOP10
Assay: shrunken log2 fold change of peptide-encoding DNA abundance (4.5 h post-induction vs induction); higher = less antimicrobial activity (less host growth inhibition)
Settings: time post-induction: 4.5 h; library: site-saturation at positions 5, 18, 19, 20
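Further: peptides expressed intracellularly from a pBAD plasmid library in pooled LB shake-flask culture, induced with 0.3% L-arabinose, DNA abundance read by NGS, three biological replicates, DESeq2 with apeglm shrinkage.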

RRIRARPPRLPRPRPRPETPPRP
shrunken log2 fold change: 1.65

RRIRHRPPRLPRPRPRPYKCPRP
shrunken log2 fold change: -0.0105

RRIRRRPPRLPRPRPRPKWFPRP
shrunken log2 fold change: -0.0159

RRIRPRPPRLPRPRPRPYRFPRP
shrunken log2 fold change: -0.261

RRIRLRPPRLPRPRPRPHTEPRP
shrunken log2 fold change: -0.167

RRIRSRPPRLPRPRPRPGIDPRP
shrunken log2 fold change: -0.0173

RRIRDRPPRLPRPRPRPRFVPRP
shrunken log2 fold change: 0.0484

RRIRARPPRLPRPRPRPNFDPRP
shrunken log2 fold change: 0.281

RRIRVRPPRLPRPRPRPWGWPRP
shrunken log2 fold change: 0.331

RRIRNRPPRLPRPRPRPSLMPRP
shrunken log2 fold change: 0.0538

RRIRRRPPRLPRPRPRPLQVPRP
shrunken log2 fold change: 0.000182

RRIRPRPPRLPRPRPRPVNHPRP
shrunken log2 fold change: -0.277

RRIRFRPPRLPRPRPRPQGIPRP
shrunken log2 fold change: 0.0254

RRIRQRPPRLPRPRPRPERAPRP
shrunken log2 fold change: 0.53

RRIRHRPPRLPRPRPRPVWSPRP
shrunken log2 fold change: -0.103

RRIRYRPPRLPRPRPRPYIAPRP
shrunken log2 fold change: -1.23

RRIRDRPPRLPRPRPRPGMIPRP
shrunken log2 fold change: 0.133

RRIRVRPPRLPRPRPRPVWTPRP
shrunken log2 fold change: 0.155

RRIRARPPRLPRPRPRPGECPRP
shrunken log2 fold change: 0.298

RRIRMRPPRLPRPRPRPIMVPRP
shrunken log2 fold change: -0.0355

RRIRHRPPRLPRPRPRPYITPRP
shrunken log2 fold change: -1.23

RRIRARPPRLPRPRPRPRPDPRP
shrunken log2 fold change: 0.819

RRIRNRPPRLPRPRPRPMCKPRP
shrunken log2 fold change: -0.175

RRIRPRPPRLPRPRPRPMHVPRP
shrunken log2 fold change: 0.038

RRIRQRPPRLPRPRPRPDYPPRP
shrunken log2 fold change: 0.00454

RRIRWRPPRLPRPRPRPHSEPRP
shrunken log2 fold change: -0.162

RRIRRRPPRLPRPRPRPAVRPRP
shrunken log2 fold change: 0.0847

RRIRPRPPRLPRPRPRPNWDPRP
shrunken log2 fold change: 0.0377

RRIRTRPPRLPRPRPRPDNEPRP
shrunken log2 fold change: -0.248

RRIRFRPPRLPRPRPRPDGNPRP
shrunken log2 fold change: -0.174

RRIRNRPPRLPRPRPRPFTNPRP
shrunken log2 fold change: 0.00408

RRIRWRPPRLPRPRPRPRATPRP
shrunken log2 fold change: 1.26

RRIRYRPPRLPRPRPRPCIWPRP
shrunken log2 fold change: -0.176

RRIRLRPPRLPRPRPRPISFPRP
shrunken log2 fold change: -0.158

RRIRKRPPRLPRPRPRPWEAPRP
shrunken log2 fold change: 0.0326

RRIRKRPPRLPRPRPRPTYTPRP
shrunken log2 fold change: 0.475

RRIRTRPPRLPRPRPRPHWAPRP
shrunken log2 fold change: 0.0228

RRIRMRPPRLPRPRPRPSCTPRP
shrunken log2 fold change: -0.0592

RRIRGRPPRLPRPRPRPMSCPRP
shrunken log2 fold change: 0.364

RRIRIRPPRLPRPRPRPQPLPRP
shrunken log2 fold change: -0.371

RRIRKRPPRLPRPRPRPRPAPRP
shrunken log2 fold change: 0.758

RRIRLRPPRLPRPRPRPWIGPRP
shrunken log2 fold change: -0.177

RRIRFRPPRLPRPRPRPMCHPRP
shrunken log2 fold change: -0.325

RRIRNRPPRLPRPRPRPWRWPRP
shrunken log2 fold change: 0.0867

RRIRRRPPRLPRPRPRPRMEPRP
shrunken log2 fold change: 0.0167

RRIRARPPRLPRPRPRPCMWPRP
shrunken log2 fold change: 0.117

RRIRHRPPRLPRPRPRPEPAPRP
shrunken log2 fold change: 1.48

RRIRMRPPRLPRPRPRPSDYPRP
shrunken log2 fold change: 0.0806

RRIRWRPPRLPRPRPRPIIGPRP
shrunken log2 fold change: 0.0626

RRIRWRPPRLPRPRPRPYGFPRP
shrunken log2 fold change: -0.00325

RRIRIRPPRLPRPRPRPPRKPRP
shrunken log2 fold change: 0.0691

RRIRARPPRLPRPRPRPDGVPRP
shrunken log2 fold change: 0.971

RRIRTRPPRLPRPRPRPKDWPRP
shrunken log2 fold change: 0.358

RRIRMRPPRLPRPRPRPQCEPRP
shrunken log2 fold change: -0.00192

RRIRYRPPRLPRPRPRPSAGPRP
shrunken log2 fold change: -0.165

RRIRYRPPRLPRPRPRPIYRPRP
shrunken log2 fold change: -0.641

RRIRYRPPRLPRPRPRPFLCPRP
shrunken log2 fold change: -1.19

RRIRVRPPRLPRPRPRPISYPRP
shrunken log2 fold change: -0.158

RRIRRRPPRLPRPRPRPFDSPRP
shrunken log2 fold change: -0.21

RRIRCRPPRLPRPRPRPECWPRP
shrunken log2 fold change: 0.669
